Results published in article PMC9956592 (2023).

Experiments:
[1] = target: T1, Ubiquitin Specific Peptidase 11 (USP11) (human, UniProt P51784 1-963, biotin (biotinylated USP11 in the yeast display assays)); test: SPR
[2] = target: T1, Ubiquitin Specific Peptidase 11 (USP11); test: SPR; remark: listed apart in the source

T1 sequence (P51784 whole entry): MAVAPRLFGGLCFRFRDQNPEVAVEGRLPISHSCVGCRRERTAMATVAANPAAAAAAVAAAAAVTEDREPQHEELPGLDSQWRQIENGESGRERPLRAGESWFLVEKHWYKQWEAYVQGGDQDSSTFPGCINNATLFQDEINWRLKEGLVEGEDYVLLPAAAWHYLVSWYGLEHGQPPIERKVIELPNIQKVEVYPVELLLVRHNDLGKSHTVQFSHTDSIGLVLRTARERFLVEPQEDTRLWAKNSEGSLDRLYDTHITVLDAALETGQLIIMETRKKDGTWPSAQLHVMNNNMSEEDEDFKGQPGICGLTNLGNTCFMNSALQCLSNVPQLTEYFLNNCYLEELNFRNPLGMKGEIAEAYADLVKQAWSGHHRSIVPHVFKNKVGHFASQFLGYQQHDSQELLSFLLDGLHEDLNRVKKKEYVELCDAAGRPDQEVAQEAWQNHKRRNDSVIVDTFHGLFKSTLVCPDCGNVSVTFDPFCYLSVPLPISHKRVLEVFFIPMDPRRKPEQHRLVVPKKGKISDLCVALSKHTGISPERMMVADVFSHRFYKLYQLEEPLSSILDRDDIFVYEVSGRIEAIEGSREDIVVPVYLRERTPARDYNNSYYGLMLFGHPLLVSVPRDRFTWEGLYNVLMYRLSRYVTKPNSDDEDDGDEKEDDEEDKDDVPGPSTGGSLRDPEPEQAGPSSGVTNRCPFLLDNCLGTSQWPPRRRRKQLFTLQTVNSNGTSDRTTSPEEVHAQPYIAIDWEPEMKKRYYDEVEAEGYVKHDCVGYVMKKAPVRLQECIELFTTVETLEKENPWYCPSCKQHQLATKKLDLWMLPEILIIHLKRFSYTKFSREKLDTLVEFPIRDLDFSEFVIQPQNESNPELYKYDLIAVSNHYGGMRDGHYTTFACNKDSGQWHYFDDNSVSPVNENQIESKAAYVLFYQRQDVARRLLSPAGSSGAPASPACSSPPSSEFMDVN

koff [1] [s⁻¹]	Kd [2] [nM]	Binder
0.0038	160	scTGP USP11-C3, purified protein (scFv, V domains shown) VH: QVQLVQSGAEVKKPGSSVKVSCKASGGTFSSYAISWVRQAPGQGLEWMGGIIPIFGTANYAQKFQGRVTITADESTSTAYMELSSLRSEDTAVYYCAREGGIGLSGWLDPWGQGTLVTVSS VL: EIVLTQSPGTLSLSPGERATLFCRASQSVSSNLAWYQQKPGQAPRLLIYGASTRATGIPARFSGSGSGTEFTLTISSLQSEDFAVYYCQQYDDWPLTFGGGTKVDIK
0.00089	48	scTGP USP11-B6, purified protein (scFv, V domains shown) VH: QVQLVQSGAEVKKPGSSVKVSCKASGGTFSSYAISWVRQAPGQGLEWMGGIIPIFGTANYAQKFLGRVTITADESTSTAYMELSSLRSEDTAVYYCAREGGIGLSGWLDPWGQGTLVTVSS VL: EIVMTQTPGTLCLSPGERATLSCRASQSVSNNNLAWYQQKPGQAPRLLIFGASNRATGIPDRFSGSGSGTDFTLTISSLQSEDFAVYYCQQYDSWPLTFGGGTKLEIK
